The results in this text go back to patent US20230322958A1 (Genentech, published 2023).

The target of assay [1] is T1, human Notch2 on U-87 MG cells (human, UniProt Q04721 26-2471). Briefly: cell-based or functional assay.
For assay [2], the target named is T2, huNotch1 (human).
T2 construct: The entry named huNotch1 is a tagged EGF-repeat fragment; also called human Notch1
T2 chain: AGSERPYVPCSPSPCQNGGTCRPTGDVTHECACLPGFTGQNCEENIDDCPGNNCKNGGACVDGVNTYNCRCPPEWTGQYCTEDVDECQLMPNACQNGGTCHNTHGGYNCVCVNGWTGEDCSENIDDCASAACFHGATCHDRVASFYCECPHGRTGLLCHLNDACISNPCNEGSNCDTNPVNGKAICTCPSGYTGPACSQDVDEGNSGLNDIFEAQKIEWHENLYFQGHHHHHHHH
Briefly: SPR.

Assay [3] concerns the target T3, huNotch3 (human).
T3 construct: The entry named huNotch3 is a tagged EGF-repeat fragment; also called human Notch3
T3 chain: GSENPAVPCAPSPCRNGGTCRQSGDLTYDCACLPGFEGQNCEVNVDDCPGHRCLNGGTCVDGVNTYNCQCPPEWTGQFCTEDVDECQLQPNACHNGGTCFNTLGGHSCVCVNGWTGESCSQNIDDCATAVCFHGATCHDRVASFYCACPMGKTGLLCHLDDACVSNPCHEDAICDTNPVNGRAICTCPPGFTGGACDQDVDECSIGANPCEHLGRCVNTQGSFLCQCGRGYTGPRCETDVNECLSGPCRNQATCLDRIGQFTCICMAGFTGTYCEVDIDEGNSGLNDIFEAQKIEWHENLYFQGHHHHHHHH
Briefly: SPR. Background: In SPR one partner is held on a chip, and binding of the other changes the refractive index at the surface.

Assay [4] deals with T4, huNotch2-EGF6-10 (human, UniProt Q04721 219-418).
T4 construct: also called human Notch2 EGF6-10
T4 sequence: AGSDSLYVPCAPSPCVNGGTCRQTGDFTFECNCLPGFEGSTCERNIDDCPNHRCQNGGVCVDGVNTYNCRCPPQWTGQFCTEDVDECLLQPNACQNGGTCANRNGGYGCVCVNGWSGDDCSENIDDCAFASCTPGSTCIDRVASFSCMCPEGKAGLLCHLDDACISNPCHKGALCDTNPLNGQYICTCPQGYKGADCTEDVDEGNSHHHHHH
Briefly: SPR BIAcore T200, antibody captured on protein A, 37 C. Here is the method:
(§1) The binding affinities of the antibodies was determined by BIAcore™ T200 machine. Rabbit antibodies were expressed as chimeric antibodies with rabbit variable domains and human constant domains. Rat antibodies were expressed as chimeric antibodies with rat variable domains and human constant regions. Humanized antibodies were expressed in the human IgG1 backbone. For kinetics measurements, antibodies were captured on research grade protein A chip (GE Healthcare) to achieve approximately 300 RU. Ten-fold serial dilutions of huNotch2-EGF6-10 were injected in HBS-P buffer with additional 3 mM CaCl₂ at 37° C. with a flow rate of 100 μL/min. Association rates (ka) and dissociation rates (kd) were calculated using a 1:1 Langmuir binding model (BIAcore™ T200 Evaluation Software version 2.0). The equilibrium dissociation constant (KD) was calculated as the ratio kd/ka.

Assay [5] concerns the target T5, huNotch2-EGF4-7 (human).
T5 chain: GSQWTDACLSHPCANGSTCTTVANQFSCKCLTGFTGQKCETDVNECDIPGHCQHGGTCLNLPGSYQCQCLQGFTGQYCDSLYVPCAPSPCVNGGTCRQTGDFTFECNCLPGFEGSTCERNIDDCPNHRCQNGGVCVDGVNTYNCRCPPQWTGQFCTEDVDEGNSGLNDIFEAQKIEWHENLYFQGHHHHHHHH
Briefly: SPR BIAcore, antibody captured on protein A, 37 C. The procedure: (§2) Binding of the anti-Notch2 antibodies to Notch2 from additional species and to constructs comprising different EGF repeat regions was evaluated by BIAcore™. For this experiment, the antibodies with human constant regions were captured on a protein A chip to achieve approximately 200 RU. Ten-fold serial dilutions of various antigens were injected in HIBS-P buffer with additional 3 mM CaCl₂ at 37° C. with a flow rate of 100 μL/min.

The target in assay [6] is T6, gpNotch2-EGF6-12 (guinea pig).
T6 construct: also called guinea pig Notch2 EGF6-12
T6 chain: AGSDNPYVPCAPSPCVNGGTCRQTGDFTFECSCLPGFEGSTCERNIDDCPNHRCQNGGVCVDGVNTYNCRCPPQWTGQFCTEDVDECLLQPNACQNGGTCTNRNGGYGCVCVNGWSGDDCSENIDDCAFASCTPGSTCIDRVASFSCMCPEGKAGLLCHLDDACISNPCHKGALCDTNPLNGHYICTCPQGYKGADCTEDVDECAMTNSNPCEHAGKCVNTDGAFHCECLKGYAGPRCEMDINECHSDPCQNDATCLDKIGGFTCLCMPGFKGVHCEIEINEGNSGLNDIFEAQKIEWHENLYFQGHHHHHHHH
Kind of assay: SPR BIAcore, antibody captured on protein A, 37 C. Here is the method: as §2

For assay [7], the target named is T7, huNotch2-EGF7-9 (human).
T7 chain: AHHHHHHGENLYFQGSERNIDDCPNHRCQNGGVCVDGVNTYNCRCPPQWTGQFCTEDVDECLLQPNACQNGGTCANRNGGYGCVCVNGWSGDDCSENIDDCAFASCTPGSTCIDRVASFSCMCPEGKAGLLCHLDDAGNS
Kind of assay: SPR BIAcore, antibody captured on protein A, 37 C. The procedure:
as §2

Assay [8] deals with T8, muNotch2-EGF6-12.K268R (mouse).
T8 chain: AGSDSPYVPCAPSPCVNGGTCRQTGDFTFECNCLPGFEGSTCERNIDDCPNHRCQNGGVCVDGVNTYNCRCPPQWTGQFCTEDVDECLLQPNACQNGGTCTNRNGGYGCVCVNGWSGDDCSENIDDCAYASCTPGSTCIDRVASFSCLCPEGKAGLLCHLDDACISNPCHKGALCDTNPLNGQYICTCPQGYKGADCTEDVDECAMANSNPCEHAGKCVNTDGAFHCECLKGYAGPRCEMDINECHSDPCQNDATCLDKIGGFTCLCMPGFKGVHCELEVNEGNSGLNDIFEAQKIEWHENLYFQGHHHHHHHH
Briefly: SPR BIAcore, antibody captured on protein A, 37 C. Here is the method: as §2

Assay [9] deals with T9, huNotch2-EGF5-8 (human).
T9 chain: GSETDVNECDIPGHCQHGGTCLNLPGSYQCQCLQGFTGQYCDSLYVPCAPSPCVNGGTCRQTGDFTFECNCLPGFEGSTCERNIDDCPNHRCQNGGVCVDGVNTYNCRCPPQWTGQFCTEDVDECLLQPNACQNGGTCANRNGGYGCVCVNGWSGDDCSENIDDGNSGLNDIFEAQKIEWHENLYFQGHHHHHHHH
Kind of assay: SPR BIAcore, antibody captured on protein A, 37 C. The procedure:
as §2

The target of assay [10] is T1, human Notch2 on U-87 MG cells. Briefly: cell-based or functional assay. The source holds these as a separate data set.
Assay [11] addresses T4, huNotch2-EGF6-10. Briefly: SPR BIAcore, separate experiment, substantially as for Table 4. The procedure: as §1
In a separate experiment, the binding affinities of the humanized versions of the rat 3107 antibody were determined, substantially as described above.

Read-outs that look alike come from different tables or passages of the source.

T1 sequence (Q04721 26-2471): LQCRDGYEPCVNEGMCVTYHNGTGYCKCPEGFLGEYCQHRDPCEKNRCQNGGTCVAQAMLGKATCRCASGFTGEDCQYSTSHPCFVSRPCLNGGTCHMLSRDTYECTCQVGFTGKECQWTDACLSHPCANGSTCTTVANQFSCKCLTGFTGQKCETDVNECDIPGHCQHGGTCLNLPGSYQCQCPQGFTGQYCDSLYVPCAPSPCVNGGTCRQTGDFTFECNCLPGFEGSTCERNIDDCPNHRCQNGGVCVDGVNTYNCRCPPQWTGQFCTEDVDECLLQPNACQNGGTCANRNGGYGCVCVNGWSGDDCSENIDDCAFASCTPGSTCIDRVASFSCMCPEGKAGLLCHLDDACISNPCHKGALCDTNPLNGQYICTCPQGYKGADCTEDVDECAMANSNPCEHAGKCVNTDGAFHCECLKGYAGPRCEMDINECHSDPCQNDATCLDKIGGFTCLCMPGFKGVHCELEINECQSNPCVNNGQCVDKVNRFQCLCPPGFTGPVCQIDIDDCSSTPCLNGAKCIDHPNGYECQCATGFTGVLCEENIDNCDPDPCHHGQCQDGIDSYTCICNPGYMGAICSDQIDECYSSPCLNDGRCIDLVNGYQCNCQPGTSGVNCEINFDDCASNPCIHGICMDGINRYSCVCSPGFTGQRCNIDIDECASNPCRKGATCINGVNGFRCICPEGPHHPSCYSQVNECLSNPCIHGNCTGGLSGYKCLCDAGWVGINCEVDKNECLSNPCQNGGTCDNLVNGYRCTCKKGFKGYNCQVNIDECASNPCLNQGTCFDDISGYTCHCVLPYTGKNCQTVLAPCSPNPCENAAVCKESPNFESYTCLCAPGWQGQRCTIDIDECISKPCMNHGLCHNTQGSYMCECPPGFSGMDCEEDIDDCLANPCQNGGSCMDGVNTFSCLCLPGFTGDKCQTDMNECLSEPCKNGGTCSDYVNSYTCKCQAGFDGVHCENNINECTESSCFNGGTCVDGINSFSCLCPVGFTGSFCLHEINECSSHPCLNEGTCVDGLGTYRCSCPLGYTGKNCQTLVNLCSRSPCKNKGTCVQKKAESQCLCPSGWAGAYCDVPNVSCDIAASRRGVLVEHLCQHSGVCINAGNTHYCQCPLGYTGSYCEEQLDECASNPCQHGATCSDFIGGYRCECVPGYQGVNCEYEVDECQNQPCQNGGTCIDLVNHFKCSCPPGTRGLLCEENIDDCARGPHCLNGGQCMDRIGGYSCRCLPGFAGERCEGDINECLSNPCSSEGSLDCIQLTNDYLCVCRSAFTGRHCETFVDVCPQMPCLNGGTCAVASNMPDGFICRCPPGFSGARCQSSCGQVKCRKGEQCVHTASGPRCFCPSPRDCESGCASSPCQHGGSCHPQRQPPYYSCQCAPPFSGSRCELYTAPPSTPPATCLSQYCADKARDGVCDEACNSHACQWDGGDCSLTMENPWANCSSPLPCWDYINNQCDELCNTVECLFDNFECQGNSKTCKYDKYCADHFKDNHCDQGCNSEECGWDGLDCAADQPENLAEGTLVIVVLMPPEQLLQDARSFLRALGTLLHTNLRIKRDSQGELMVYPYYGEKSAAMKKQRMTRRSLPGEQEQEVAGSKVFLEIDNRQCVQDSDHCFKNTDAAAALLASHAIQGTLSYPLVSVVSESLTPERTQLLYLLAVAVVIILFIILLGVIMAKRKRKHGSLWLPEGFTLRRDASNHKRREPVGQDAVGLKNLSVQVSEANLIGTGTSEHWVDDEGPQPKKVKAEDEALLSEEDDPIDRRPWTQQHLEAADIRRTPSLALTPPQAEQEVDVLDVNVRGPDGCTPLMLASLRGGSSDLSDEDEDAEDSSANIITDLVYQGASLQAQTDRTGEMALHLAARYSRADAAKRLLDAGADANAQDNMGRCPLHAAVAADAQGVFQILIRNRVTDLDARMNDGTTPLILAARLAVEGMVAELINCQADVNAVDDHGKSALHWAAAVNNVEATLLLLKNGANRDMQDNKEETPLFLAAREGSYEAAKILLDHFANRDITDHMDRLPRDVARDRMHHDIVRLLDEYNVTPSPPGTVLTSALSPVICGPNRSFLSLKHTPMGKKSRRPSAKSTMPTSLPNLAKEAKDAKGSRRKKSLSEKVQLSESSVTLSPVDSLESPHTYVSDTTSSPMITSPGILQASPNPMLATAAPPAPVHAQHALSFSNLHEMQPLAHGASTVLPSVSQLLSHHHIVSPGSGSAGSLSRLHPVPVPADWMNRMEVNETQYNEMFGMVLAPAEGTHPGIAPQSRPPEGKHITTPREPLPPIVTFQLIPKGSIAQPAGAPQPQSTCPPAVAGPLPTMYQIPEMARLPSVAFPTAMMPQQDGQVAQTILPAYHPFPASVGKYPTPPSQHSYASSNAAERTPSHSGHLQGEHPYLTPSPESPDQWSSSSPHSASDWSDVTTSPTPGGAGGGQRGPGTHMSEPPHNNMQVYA

B1: hu1B2.v101 (antibody, V domains shown)
VH: EVQLVESGGGLVQPGGSLKLSCAVSGFTFSDFYMEWVRQASGKGLEWVAAQRNKANDFSIVYSASVKDRFTISRDDSKSTLYLQMNSLKTEDTAVYYCSRDGGRWGLDAWGQGTLVTVSS
VL: DIQMTQSPSSVSASVGDRVTITCQTSEDIYSGLAWYQQKPGKSPKLLIYGASRLQDGVPSRFSGSGSGTDYTLTISSLQPEDFATYYCQQGFKYPLTFGGGTKVEIK
notes: Human IgG1 backbone
In the case of B1, the “Jagged1 IC50” value in [1] was determined as 3.02 nM. In addition, the binding result in assay [2] is “no binding”. Moreover, the binding result in assay [3] was “no binding”. In [4], this molecule yielded a Kd of 2.84 nM, a koff of 0.000813 s⁻¹ and a kon of 286000 M⁻¹ s⁻¹.

B2: hu1B2.v104 (antibody, V domains shown)
VH: EVQLVESGGGLVQPGGSLKLSCAVSGFTFSDFYMEWVRQASGKGLEWVAAQRNKANDFSIVYSASVKDRFTISRDDSKSTLYLQMNSLKTEDTAVYYCSRDGGKLALDAWGQGTLVTVSS
VL: DIQMTQSPSSVSASVGDRVTITCQTSEDIYSGLAWYQQKPGKSPKLLIYGASRLQDGVPSRFSGSGSGTDYTLTISSLQPEDFATYYCQQGFKYPLTFGGGTKVEIK
notes: Human IgG1 backbone; also called hu1B2.v014
Consider B2, for which the binding result in assay [5], in assay [6], in assay [7], in [8] and in assay [9] was “binds” each time. Besides, the “Jagged1 IC50” value in assay [1] was found to be 2.48 nM. The Kd in assay [4] stood at 3.09 nM. Besides, the koff in assay [4] stood at 0.0011 s⁻¹. This molecule also registered a kon in [4] of 357000 M⁻¹ s⁻¹.

B3: hu1B2.v103 (antibody, V domains shown)
VH: EVQLVESGGGLVQPGGSLKLSCAVSGFTFSDFYMEWVRQASGKGLEWVAAQRNKANDFSIVYSASVKDRFTISRDDSKSTLYLQMNSLKTEDTAVYYCSRDGGKWGLDAWGQGTLVTVSS
VL: DIQMTQSPSSVSASVGDRVTITCQTSEDIYSGLAWYQQKPGKSPKLLIYGASRLQDGVPSRFSGSGSGTDYTLTISSLQPEDFATYYCQQGFKYPLTFGGGTKVEIK
notes: Human IgG1 backbone
Take B3: the “Jagged1 IC50” value in [1] amounted to 1.8 nM. Also, the binding result in assay [2] is “no binding”. The binding result in assay [3] is on record as “no binding”. In assay [4], this molecule had a Kd of 3.08 nM, a koff of 0.000817 s⁻¹ and a kon of 265000 M⁻¹ s⁻¹.

B4: rat.3107 (rat/human chimeric anti-Notch2 antibody 3107) (antibody, V domains shown)
VH: QVQLQQSGAELAKSGSSVKISCKASGYTFSNYVIHWIKQTTGQAPEWTGYIIPGSGGTKFNEKFKGKATLTVDKSSTTAYMQLSSLTPVDTAVYYCARDGAGSFTYWGQGTLVTVSS
VL: DVLMTQTPVSLPVSLGGQVSISCRSSQSLVHSDGNTYLHWFLQKPGQSPQLLIYRISNRFSGVPDRFSGSGSGTDFTLKISRVEPEDLGVYYCLQSTHFPDTFGGGTKVEIK
As for B4, the binding result in [5], in assay [6], in assay [7], in assay [8] and in [9] was “binds” throughout. Besides, the “Jagged1 IC50” value in assay [1] amounted to 2.1 nM; in assay [10], 4.88 nM. In addition, the Kd in assay [11] is 9.12 nM; in assay [4], 5 nM. The koff turned out to be 0.00312 s⁻¹ in assay [11] and 0.00182 s⁻¹ in assay [4]. Further, the kon in assay [11] came out at 342000 M⁻¹ s⁻¹; in assay [4] it was 363000 M⁻¹ s⁻¹.

Usually Kd stands for a measure of binding affinity in units of concentration. What is called koff is the first-order rate constant of dissociation. A word on the kon: it is the second-order rate constant of association. A low value points to slower complex formation.
